T1: mouse TGF-βRI (ALK-5)/Fc (mouse, UniProt Q64729 30-125, limits assumed)
T1 construct: Bought counter-target
T1 sequence (looked up): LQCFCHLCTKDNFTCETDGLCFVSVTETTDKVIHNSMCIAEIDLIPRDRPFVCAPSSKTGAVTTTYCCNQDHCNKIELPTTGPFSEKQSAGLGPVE

T2: human Activin RIB (ALK-4)/Fc (human, UniProt P36896 24-126)
T2 construct: Bought counter-target
T2 sequence (looked up): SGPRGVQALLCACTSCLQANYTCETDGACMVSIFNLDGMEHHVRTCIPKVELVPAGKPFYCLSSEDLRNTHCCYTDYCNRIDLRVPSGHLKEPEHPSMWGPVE

B1: GDF-11 (ligand, UniProt O95390 299-407, looked up)
chain: NLGLDCDEHSSESRCCRYPLTVDFEAFGWDWIIAPKRYKANYCSGQCEYMFMQKYPHTHLVQQANPRGSAGPCCTPTKMSPINMLYFNDKQQIIYGKIPGMVVDRCGCS
B2: MOR07079 Fab (Fab, V domains shown)
VH: QVQLVQSGAEVKKPGASVKVSCKASGYTFTSSYINWVRQAPGQGLEWMGTINPVSGNTSYAQKFQGRVTMTRDTSISTAYMELSSLRSEDTAVYYCARGGWFDYWGQGTLVTVSS
VL: DIALTQPASVSGSPGQSITISCTGTSSDVGSYNYVNWYQQHPGKAPKLMIYGVSKRPSGVSNRFSGSKSGNTASLTISGLQAEDEADYYCQAWTSKMAGVFGGGTKLTVL
notes: Parental HuCAL GOLD Fab (Fab-FH format from pMORPH X9_FH vector); also called MOR7079; Fab-FH
B3: Activin A (ligand, UniProt P08476 311-426, looked up)
chain: GLECDGKVNICCKKQFFVSFKDIGWNDWIIAPSGYHANYCEGECPSHIAGTSGSSLSFHSTVINHYRMRGHSPFANLKSCCVPTKLRPMSMLYYDDGQNIIKKDIQNMIVEECGCS

How the values were obtained:
[1] = target: endogenous human ActRIIB on cells (human) (UniProt Q13705); experiment: cell-based or functional assay
[2] = target: T1, mouse TGF-βRI (ALK-5)/Fc; experiment: specificity ELISA on coated recombinant protein
Description: (§1) The specificity of anti-ActRIIB Fab antibodies to human ActRIIB and crossreactivity to human ActRIIA and mouse ActRIIB is evaluated in an ELISA setting. Additionally, binding to related receptors (counter-targets: human TGF-βRII/Fc (R&D systems), mouse TGF-βRI (ALK-5)/Fc (R&D systems), human Activin RIB (ALK-4)/Fc (R&D systems)) is determined. For this 5 μg/ml (if not stated otherwise) of the recombinant proteins diluted in PBS are added to a black 96-well flat-bottom MaxiSorp™ plate and incubated over night at 4° C. for coating.
(§2) The next morning, the plates are washed with TBST and blocked with MTBST. After washing the plates several times, 5 μg/ml anti-ActRIIB Fab are added and incubated for 2.5 hrs. Subsequently antigen bound Fabs are detected by incubation with alkaline phosphatase conjugated goat-anti-human IgG Fab-specific, followed by addition of AttoPhos fluorescence substrate.

[3] = target: T3, human TGF-βRII/Fc (human, UniProt P37173 24-159); experiment: specificity ELISA on coated recombinant protein
T3 construct: Bought counter-target
Description: as §1, §2

[4] = target: T2, human Activin RIB (ALK-4)/Fc; experiment: specificity ELISA on coated recombinant protein
Description: as §1, §2

endogenous human ActRIIB on cells (human), sequence (Q13705 19-512 E459A limits assumed): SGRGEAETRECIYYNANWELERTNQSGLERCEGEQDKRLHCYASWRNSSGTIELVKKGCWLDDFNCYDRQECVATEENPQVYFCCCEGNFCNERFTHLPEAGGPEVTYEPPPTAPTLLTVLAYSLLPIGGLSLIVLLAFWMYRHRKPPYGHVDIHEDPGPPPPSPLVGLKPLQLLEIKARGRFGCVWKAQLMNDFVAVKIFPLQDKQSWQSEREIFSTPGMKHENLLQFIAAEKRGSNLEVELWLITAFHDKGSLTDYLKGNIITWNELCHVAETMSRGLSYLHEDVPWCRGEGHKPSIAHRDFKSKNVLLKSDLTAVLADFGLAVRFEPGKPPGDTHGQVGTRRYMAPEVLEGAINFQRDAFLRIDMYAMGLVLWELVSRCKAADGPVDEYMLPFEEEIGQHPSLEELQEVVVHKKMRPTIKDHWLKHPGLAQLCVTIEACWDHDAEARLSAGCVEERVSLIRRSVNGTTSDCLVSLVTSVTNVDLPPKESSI
T3 sequence (P37173 24-159 limits assumed): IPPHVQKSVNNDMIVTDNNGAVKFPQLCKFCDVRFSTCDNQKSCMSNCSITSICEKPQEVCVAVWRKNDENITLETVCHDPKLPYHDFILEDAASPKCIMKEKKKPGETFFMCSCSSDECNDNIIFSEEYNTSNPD

| Binder | Emax of ligand-induced inhibition of skeletal muscle differentiation in the presence of MOR08159 (10 µg/ml) [1] [% control] | Emax of ligand-induced inhibition of skeletal muscle differentiation in the presence of MOR08213 (10 µg/ml) [1] [% control] | Emax of ligand-induced inhibition of skeletal muscle differentiation, no Ab [1] [% control] | IC50 of ligand-induced inhibition of skeletal muscle differentiation in the presence of MOR08159 (10 µg/ml) [1] [ng/mL] | IC50 of ligand-induced inhibition of skeletal muscle differentiation in the presence of MOR08213 (10 µg/ml) [1] [ng/mL] | IC50 of ligand-induced inhibition of skeletal muscle differentiation, no Ab [1] [ng/mL] | binding result [2] | binding result [3] | binding result [4] |
| --- | --- | --- | --- | --- | --- | --- | --- | --- | --- |
| B1 | 22.1 | 27.1 | 23.2 | 13.3 | 12 | 7 | – | – | – |
| B2 | – | – | – | – | – | – | no binding (tested: 5 µg/ml Fab) | no binding (tested: 5 µg/ml Fab) | no binding (tested: 5 µg/ml Fab) |
| B3 | 61.9 | 57.2 | 37.1 | 34.7 | 41.9 | 14.7 | – | – | – |
